Assay results reported in paper PMC6391183.

Biological target: Ago2 PAZ domain (human, UniProt Q9UKV8 227-371)
Experiment: ITC

Chain of Ago2 PAZ domain (Q9UKV8 227-371): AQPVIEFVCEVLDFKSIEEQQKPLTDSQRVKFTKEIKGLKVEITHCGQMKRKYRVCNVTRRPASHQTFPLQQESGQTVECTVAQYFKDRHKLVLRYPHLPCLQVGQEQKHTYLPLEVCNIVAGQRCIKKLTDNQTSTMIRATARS

Binder: AGAGUCACGCUUU (ssRNA) [native RNA]
- Kd: 600 nM
